What was measured:
[1] = biological target: T1, wild-type heparanase produced in COS7 cells (hepwt) (Homo sapiens, UniProt Q9Y251); test: Heparin titration in the fluorimetric heparanase activity assay, wild-type enzyme; format: biochemical
T1 construct: made in house; host or cells: COS7 cells, transient transfection with pcDNA3; partially purified on Heparin Sepharose
T1 sequence (Q9Y251 36-109 limits assumed): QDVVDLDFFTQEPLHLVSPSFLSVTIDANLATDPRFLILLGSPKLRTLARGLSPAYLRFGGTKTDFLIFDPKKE
T1 sequence (Q9Y251 158-543 limits assumed): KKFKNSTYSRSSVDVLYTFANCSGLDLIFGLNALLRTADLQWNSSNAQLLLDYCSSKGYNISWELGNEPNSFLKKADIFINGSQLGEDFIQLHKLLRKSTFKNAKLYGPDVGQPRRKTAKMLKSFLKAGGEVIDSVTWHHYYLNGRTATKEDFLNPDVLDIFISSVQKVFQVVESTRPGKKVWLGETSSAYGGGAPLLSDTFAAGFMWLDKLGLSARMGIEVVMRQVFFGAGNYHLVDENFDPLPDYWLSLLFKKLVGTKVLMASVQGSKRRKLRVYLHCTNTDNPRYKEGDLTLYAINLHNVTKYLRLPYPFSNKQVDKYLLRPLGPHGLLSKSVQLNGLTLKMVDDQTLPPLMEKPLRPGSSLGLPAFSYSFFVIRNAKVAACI
Experimental: (§1) FIG. 7: Ionic strength dependence (panel A), inhibition by heparin (panel B) and pH-dependence (panel C) of wild-type heparanase produced in COS7 cells (●), hepGS3 (□) and hepHyal (▴) single chain constructs produced in insect cells using the fluorimetric activity assay.
(§2) This assay is based on the degradation of FITC-HS monitored by HPLC size exclusion chromatography. 8 μl of purified heparanase was incubated with 5 μL of FITC-HS in a 50 μl of 50 mM MES pH 6, 10% glycerol (heparanase activity buffer, HAB). The reaction mixture was incubated at room temperature for a defined period and the reaction was stopped by the addition of 50 μg of heparin. The mixture was then filtered using Ultrafree-MC centrifugal filter Devices (Millipore). 20 μl were injected on a Superdex 75™ (Pharmacia Biotech) column equilibrated in buffer 50 mM Hepes pH 7.5 150 mM Na2SO4 and connected to a Merck-Hitachi HPLC system. Fluorescent heparan sulfate degradation products were detected by an L-7485 fluorescence detector. Heparanase activity was assessed by monitoring the increase in lower molecular weight heparan sulfate species compared with the intact FITC-HS and quantified by peak area integration.

[2] = biological target: T2, hepGS3 single chain construct produced in insect cells (Homo sapiens, UniProt Q9Y251, DEL111-157/INS109GSGSG/K307R); test: Heparin titration in the fluorimetric heparanase activity assay, hepGS3; format: biochemical
T2 construct: made in house; host or cells: Sf9 insect cells (baculovirus, Bac to Bac)
T2 sequence (Q9Y251 with tags, fused parts or gaps INS109GSGSG/DEL111-157/K307R): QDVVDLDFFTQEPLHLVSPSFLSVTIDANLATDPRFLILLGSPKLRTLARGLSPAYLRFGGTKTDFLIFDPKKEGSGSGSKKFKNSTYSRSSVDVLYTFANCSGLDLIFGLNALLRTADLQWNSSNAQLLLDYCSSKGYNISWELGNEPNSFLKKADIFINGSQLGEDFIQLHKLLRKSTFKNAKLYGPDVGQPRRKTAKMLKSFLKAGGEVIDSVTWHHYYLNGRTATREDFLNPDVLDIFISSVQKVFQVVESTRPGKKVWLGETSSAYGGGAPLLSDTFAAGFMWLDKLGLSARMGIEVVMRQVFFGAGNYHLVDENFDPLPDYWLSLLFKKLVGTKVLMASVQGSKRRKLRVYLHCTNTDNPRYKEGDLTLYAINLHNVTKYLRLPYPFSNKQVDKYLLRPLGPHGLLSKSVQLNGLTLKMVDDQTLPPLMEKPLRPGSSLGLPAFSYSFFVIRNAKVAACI
Experimental: as §1, §2

[3] = biological target: T3, hepHyal single chain construct produced in insect cells (Homo sapiens, UniProt Q9Y251, DEL119-135/E137F/E138K/K139D/K307R/L140K/L142P/R141T/V136A); test: Heparin titration in the fluorimetric heparanase activity assay, hepHyal; format: biochemical
T3 construct: made in house; host or cells: Sf9 insect cells (baculovirus, Bac to Bac)
T3 sequence (Q9Y251 other isoform, or with tags, fused parts or gaps DEL119-135/V136A/E137F/E138K/K139D/L140K/R141T/L142P/K307R): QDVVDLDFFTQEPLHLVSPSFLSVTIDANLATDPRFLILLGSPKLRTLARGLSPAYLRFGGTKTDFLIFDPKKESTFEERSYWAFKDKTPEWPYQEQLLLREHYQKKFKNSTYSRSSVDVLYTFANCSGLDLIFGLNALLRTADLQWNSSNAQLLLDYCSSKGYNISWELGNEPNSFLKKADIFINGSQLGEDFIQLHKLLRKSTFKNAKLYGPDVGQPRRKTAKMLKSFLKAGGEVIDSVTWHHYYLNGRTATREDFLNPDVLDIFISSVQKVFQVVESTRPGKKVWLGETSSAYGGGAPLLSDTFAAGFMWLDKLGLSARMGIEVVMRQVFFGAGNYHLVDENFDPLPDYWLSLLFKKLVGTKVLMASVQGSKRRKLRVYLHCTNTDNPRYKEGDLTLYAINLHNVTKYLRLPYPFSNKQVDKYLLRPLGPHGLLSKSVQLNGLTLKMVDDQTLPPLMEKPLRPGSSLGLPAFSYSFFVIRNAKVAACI
Experimental: as §1, §2

[4] = Heparanase activation of TEV cleavage site constructs by digestion with TEV protease; format: biochemical; details: overnight at room temperature, TEV protease 0.5 μM, 50 mM Mes pH 6.0
Experimental: Heparanase activity of these samples was assessed using the fluorimetric method.
The constructs having TEV cleavage sites at positions 109/110 and 109/110+157/158 were expressed, purified on a heparin affinity column and digested overnight at room temperature with TEV protease (0.5 μM) in 50 mM Mes pH 6.0, 10% glycerol, 0.5 mM EDTA.
as §2

[5] = biological target: T4, hepTEV110 (human heparanase with a TEV cleavage site E109-GSGSENLYFQ-GSG-G110 inserted between E109 and G110)
T4 chain: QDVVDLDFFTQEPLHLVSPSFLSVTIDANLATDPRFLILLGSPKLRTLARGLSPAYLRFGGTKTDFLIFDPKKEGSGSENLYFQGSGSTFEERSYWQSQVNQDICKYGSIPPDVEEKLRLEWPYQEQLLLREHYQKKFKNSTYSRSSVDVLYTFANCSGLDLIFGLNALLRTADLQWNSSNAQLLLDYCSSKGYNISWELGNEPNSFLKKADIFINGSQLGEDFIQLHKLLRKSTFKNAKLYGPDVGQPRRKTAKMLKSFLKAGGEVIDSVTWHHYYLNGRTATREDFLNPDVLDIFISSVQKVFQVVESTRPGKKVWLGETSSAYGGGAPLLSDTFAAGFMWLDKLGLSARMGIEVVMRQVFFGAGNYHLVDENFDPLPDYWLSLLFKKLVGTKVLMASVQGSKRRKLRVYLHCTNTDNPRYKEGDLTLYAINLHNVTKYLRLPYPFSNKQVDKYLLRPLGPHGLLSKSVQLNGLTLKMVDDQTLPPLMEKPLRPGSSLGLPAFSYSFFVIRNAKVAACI

[6] = biological target: T5, hepTEV110/158 (human heparanase with TEV cleavage sites between E109/G110 and Q157/K158)
T5 chain: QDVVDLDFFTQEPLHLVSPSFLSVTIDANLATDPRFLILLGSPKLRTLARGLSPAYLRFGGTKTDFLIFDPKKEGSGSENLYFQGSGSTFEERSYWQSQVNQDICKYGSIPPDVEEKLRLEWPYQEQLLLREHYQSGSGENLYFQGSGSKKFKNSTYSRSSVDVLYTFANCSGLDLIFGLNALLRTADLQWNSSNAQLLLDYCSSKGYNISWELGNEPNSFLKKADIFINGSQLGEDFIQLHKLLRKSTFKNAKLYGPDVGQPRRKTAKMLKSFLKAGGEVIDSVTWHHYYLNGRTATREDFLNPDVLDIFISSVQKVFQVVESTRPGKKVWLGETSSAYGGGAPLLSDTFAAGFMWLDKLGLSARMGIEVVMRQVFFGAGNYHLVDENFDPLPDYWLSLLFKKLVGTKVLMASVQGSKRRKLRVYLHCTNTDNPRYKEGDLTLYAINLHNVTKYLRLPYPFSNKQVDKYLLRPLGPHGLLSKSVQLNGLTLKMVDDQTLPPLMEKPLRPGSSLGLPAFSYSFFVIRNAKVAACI

[7] = cited from earlier work

In the case of heparin, the “IC50 of heparin, hepwt” value [1] is reported as 0.9 µg/mL, the “IC50 of heparin, hepGS3” value [2] is reported as 1.1 µg/mL and the “IC50 of heparin, hepHyal” value [3] is reported as 1.5 µg/mL.

B1: 109/110+157/158: heparanase with TEV cleavage sites between E109/G110 and Q157/K158, SEQ ID NOs:29 and 32 (protein)
chain: QDVVDLDFFTQEPLHLVSPSFLSVTIDANLATDPRFLILLGSPKLRTLARGLSPAYLRFGGTKTDFLIFDPKKEGSGSENLYFQGSGSTFEERSYWQSQVNQDICKYGSIPPDVEEKLRLEWPYQEQLLLREHYQSGSGENLYFQGSGSKKFKNSTYSRSSVDVLYTFANCSGLDLIFGLNALLRTADLQWNSSNAQLLLDYCSSKGYNISWELGNEPNSFLKKADIFINGSQLGEDFIQLHKLLRKSTFKNAKLYGPDVGQPRRKTAKMLKSFLKAGGEVIDSVTWHHYYLNGRTATREDFLNPDVLDIFISSVQKVFQVVESTRPGKKVWLGETSSAYGGGAPLLSDTFAAGFMWLDKLGLSARMGIEVVMRQVFFGAGNYHLVDENFDPLPDYWLSLLFKKLVGTKVLMASVQGSKRRKLRVYLHCTNTDNPRYKEGDLTLYAINLHNVTKYLRLPYPFSNKQVDKYLLRPLGPHGLLSKSVQLNGLTLKMVDDQTLPPLMEKPLRPGSSLGLPAFSYSFFVIRNAKVAACI
For B1, the “activation of heparanase by TEV protease treatment” value [4] was “activated”.

B2: tobacco etch virus (TEV) protease (protein)
chain: GESLFKGPRDYNPISSTICHLTNESDGHTTSLYGIGFGPFIITNKHLFRRNNGTLLVQSLHGVFKVKNTTTLQQHLIDGRDMIIIRMPKDFPPFPQKLKFREPQREERICLVTTNFQTKSMSSMVSDTSCTFPSSDGIFWKHWIQTKDGQCGSPLVSTRDGFIVGIHSASNFTNTNNYFTSVPKNFMELLTNQEAQQWVSGWRLNADSVLWGGHKVFMSKPEEPFQPVKEATQLMNELVYSQ
In the case of B2, the “proteolytic processing by TEV protease (overnight digestion, Western blot)” value [5] is reported as “Complete processing was observed in both cases” and the “proteolytic processing by TEV protease (overnight digestion, Western blot)” value [6] is reported as “Complete processing was observed in both cases”.

B3: 50 kDa protein: mature 50 kDa human heparanase fragment, SEQ ID NO:16 (protein)
chain: KKFKNSTYSRSSVDVLYTFANCSGLDLIFGLNALLRTADLQWNSSNAQLLLDYCSSKGYNISWELGNEPNSFLKKADIFINGSQLGEDFIQLHKLLRKSTFKNAKLYGPDVGQPRRKTAKMLKSFLKAGGEVIDSVTWHHYYLNGRTATREDFLNPDVLDIFISSVQKVFQVVESTRPGKKVWLGETSSAYGGGAPLLSDTFAAGFMWLDKLGLSARMGIEVVMRQVFFGAGNYHLVDENFDPLPDYWLSLLFKKLVGTKVLMASVQGSKRRKLRVYLHCTNTDNPRYKEGDLTLYAINLHNVTKYLRLPYPFSNKQVDKYLLRPLGPHGLLSKSVQLNGLTLKMVDDQTLPPLMEKPLRPGSSLGLPAFSYSFFVIRNAKVAACI
modifications: Human
For B3, the “activity if expressed as such in mammalian cells” value ([7]; Hulett et al. 1999) is listed as “inactive” and the “specific activity relative to the unprocessed 65 kDa precursor” value ([7]; Vlodavsky et al. 1999) is listed as “at least 100 fold”.

B4: 109/110: heparanase with TEV protease cleavage site between E109 and G110, protein SEQ ID NO:31 (protein)
chain: MLLRSKPALPPPLMLLLLGPLGPLSPGALPRPAQAQDVVDLDFFTQEPLHLVSPSFLSVTIDANLATDPRFLILLGSPKLRTLARGLSPAYLRFGGTKTDFLIFDPKKEGSGSENLYFQGSGSTFEERSYWQSQVNQDICKYGSIPPDVEEKLRLEWPYQEQLLLREHYQKKFKNSTYSRSSVDVLYTFANCSGLDLIFGLNALLRTADLQWNSSNAQLLLDYCSSKGYNISWELGNEPNSFLKKADIFINGSQLGEDFIQLHKLLRKSTFKNAKLYGPDVGQPRRKTAKMLKSFLKAGGEVIDSVTWHHYYLNGRTATREDFLNPDVLDIFISSVQKVFQVVESTRPGKKVWLGETSSAYGGGAPLLSDTFAAGFMWLDKLGLSARMGIEVVMRQVFFGAGNYHLVDENFDPLPDYWLSLLFKKLVGTKVLMASVQGSKRRKLRVYLHCTNTDNPRYKEGDLTLYAINLHNVTKYLRLPYPFSNKQVDKYLLRPLGPHGLLSKSVQLNGLTLKMVDDQTLPPLMEKPLRPGSSLGLPAFSYSFFVIRNAKVAACI
modifications: hep TEV110
With B4 the “activation of heparanase by TEV protease treatment” value [4] was “not sufficient for eliciting activation”.
